Patent US20030148956A1 (PROCTER AND GAMBLE, published 2003)
Ends that are not written are not given here.

T1: CRF2R
T1 sequence (Q13324 whole entry, species assumed, looked up): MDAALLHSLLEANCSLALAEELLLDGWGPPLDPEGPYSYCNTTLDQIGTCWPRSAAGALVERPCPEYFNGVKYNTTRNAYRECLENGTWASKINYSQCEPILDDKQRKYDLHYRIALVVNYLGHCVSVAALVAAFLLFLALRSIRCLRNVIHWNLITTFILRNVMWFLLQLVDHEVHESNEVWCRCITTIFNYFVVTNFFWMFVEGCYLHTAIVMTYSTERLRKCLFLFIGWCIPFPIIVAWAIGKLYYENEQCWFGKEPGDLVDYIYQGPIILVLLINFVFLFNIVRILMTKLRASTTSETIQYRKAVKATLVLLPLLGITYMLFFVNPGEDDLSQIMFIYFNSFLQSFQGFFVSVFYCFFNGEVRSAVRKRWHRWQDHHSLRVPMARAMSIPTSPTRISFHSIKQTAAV


The binders below were run against CRF1R (assay: cell-based or functional assay).

| Binder | CRF1R EC50 | CRF1R Emax |
| --- | --- | --- |
| ZGPPISIDLSIGLLRKMIEIEKQEKEKQQAANNRLLLDTI (C-terminal amide) [SEQ ID NO 25] | 677 nM | 92.3% |
| ZGPPISIDLPISLLRKMIEIEKQEKEKQQAANNRLLLDTI (C-terminal amide) [SEQ ID NO 53] | > 1000 nM | 19% |
| ZGPPISIDLPIILLRKMIEIEKQEKEKQQAANNRLLLDTI (C-terminal amide) [SEQ ID NO 36] | > 1000 nM | 33% |
| ZGPPISIDLPTVLLRKMIEIEKQEKEKQQAANNRLLLDTI (C-terminal amide) [SEQ ID NO 46] | > 1000 nM | 17% |
| ZGPPISIDLPEYLLRKMIEIEKQEKEKQQAANNRLLLDTI (C-terminal amide) [SEQ ID NO 48] | 1000 nM | 21% |
| ZGPPISIDLPIRLLRKMIEIEKQEKEKQQAANNRLLLDTI (C-terminal amide) [SEQ ID NO 38] | > 1000 nM | 11% |
| ZGPPISIDLPTPLLRKMIEIEKQEKEKQQAANNRLLLDTI (C-terminal amide) [SEQ ID NO 52] | > 1000 nM | 13% |
| ZGPPISIDLPYYLLRKMIEIEKQEKEKQQAANNRLLLDTI (C-terminal amide) [SEQ ID NO 40] | 102 nM | 99% |
| ZGPPISIDLPTDLLRKMIEIEKQEKEKQQAANNRLLLDTI (C-terminal amide) [SEQ ID NO 49] | > 1000 nM | 15% |
| ZGPPISIDLPTKLLRKMIEIEKQEKEKQQAANNRLLLDTI (C-terminal amide) [SEQ ID NO 45] | > 1000 nM | 7% |
| ZGPPISIDLPINLLRKMIEIEKQEKEKQQAANNRLLLDTI (C-terminal amide) [SEQ ID NO 37] | > 1000 nM | 5% |
| ZGPPISIDLPIKLLRKMIEIEKQEKEKQQAANNRLLLDTI (C-terminal amide) [SEQ ID NO 34] | > 1000 nM | 11% |
| ZGPPISIDLSLELLRKMIEIEKQEKEKQQAANNALLLATI (C-terminal amide) [SEQ ID NO 30] | 100 nM | 100% |
| ZGPPISIDLPTLLLRKMIEIEKQEKEKQQAANNRLLLDTI (C-terminal amide) [SEQ ID NO 51] | > 1000 nM | 48% |
| ZGPPISIDLPIVLLRKMIEIEKQEKEKQQAANNRLLLDTI (C-terminal amide) [SEQ ID NO 31] | > 1000 nM | 18% |
| ZGPPISIDLPQYLLRKMIEIEKQEKEKQQAANNRLLLDTI (C-terminal amide) [SEQ ID NO 27] | 325 nM | 100% |
| ZGPPISIDLPTSLLRKMIEIEKQEKEKQQAANNRLLLDTI (C-terminal amide) [SEQ ID NO 43] | > 1000 nM | 10% |
| ZGPPISIDLPVYLLRKMIEIEKQEKEKQQAANNRLLLDTI (C-terminal amide) [SEQ ID NO 39] | 1000 nM | 63% |
| ZGPPISIDLPTWLLRKMIEIEKQEKEKQQAANNRLLLDTI (C-terminal amide) [SEQ ID NO 41] | > 1000 nM | 43% |
| ZGPPISIDLPTILLRKMIEIEKQEKEKQQAANNRLLLDTI (C-terminal amide) [SEQ ID NO 50] | > 1000 nM | 42% |
| ZGPPISIDLPIPLLRKMIEIEKQEKEKQQAANNRLLLDTI (C-terminal amide) [SEQ ID NO 26] | > 1000 nM | 16% |
| ZGPPISIDLPTTLLRKMIEIEKQEKEKQQAANNRLLLDTI (C-terminal amide) [SEQ ID NO 42] | > 1000 nM | 10% |
| ZGPPISIDLPILLLRKMIEIEKQEKEKQQAANNRLLLDTI (C-terminal amide) [SEQ ID NO 35] | > 1000 nM | 74% |
| ZGPPISIDLPAYLLRKMIEIEKQEKEKQQAANNRLLLDTI (C-terminal amide) [SEQ ID NO 32] | 606 nM | 94% |
| ZGPPISIDLPIALLRKMIEIEKQEKEKQQAANNRLLLDTI (C-terminal amide) [SEQ ID NO 47] | 1000 nM | 12% |
| ZGPPISIDLPIFLLRKMIEIEKQEKEKQQAANNRLLLDTI (C-terminal amide) [SEQ ID NO 29] | > 1000 nM | 79% |
| ZGPPISIDLPIDLLRKMIEIEKQEKEKQQAANNRLLLDTI (C-terminal amide) [SEQ ID NO 28] | > 1000 nM | 2% |
| ZGPPISIDLPTFLLRKMIEIEKQEKEKQQAANNRLLLDTI (C-terminal amide) [SEQ ID NO 44] | 944 nM | 64% |

Each binder was assayed against T1, CRF2R (assay: cell-based or functional assay).

| Binder | CRF2R EC50 | CRF2R Emax |
| --- | --- | --- |
| ZGPPISIDLSIGLLRKMIEIEKQEKEKQQAANNRLLLDTI (C-terminal amide) [SEQ ID NO 25] | 81 nM | 81.9% |
| ZGPPISIDLPISLLRKMIEIEKQEKEKQQAANNRLLLDTI (C-terminal amide) [SEQ ID NO 53] | > 100 nM | 95% |
| ZGPPISIDLPIILLRKMIEIEKQEKEKQQAANNRLLLDTI (C-terminal amide) [SEQ ID NO 36] | 14.8 nM | 73% |
| ZGPPISIDLPTVLLRKMIEIEKQEKEKQQAANNRLLLDTI (C-terminal amide) [SEQ ID NO 46] | > 100 nM | 100% |
| ZGPPISIDLPEYLLRKMIEIEKQEKEKQQAANNRLLLDTI (C-terminal amide) [SEQ ID NO 48] | 100 nM | 14% |
| ZGPPISIDLPIRLLRKMIEIEKQEKEKQQAANNRLLLDTI (C-terminal amide) [SEQ ID NO 38] | 71.9 nM | 91% |
| ZGPPISIDLPTPLLRKMIEIEKQEKEKQQAANNRLLLDTI (C-terminal amide) [SEQ ID NO 52] | > 100 nM | 10% |
| ZGPPISIDLPYYLLRKMIEIEKQEKEKQQAANNRLLLDTI (C-terminal amide) [SEQ ID NO 40] | 6.95 nM | 93% |
| ZGPPISIDLPTDLLRKMIEIEKQEKEKQQAANNRLLLDTI (C-terminal amide) [SEQ ID NO 49] | > 100 nM | 37% |
| ZGPPISIDLPTKLLRKMIEIEKQEKEKQQAANNRLLLDTI (C-terminal amide) [SEQ ID NO 45] | > 100 nM | 44% |
| ZGPPISIDLPINLLRKMIEIEKQEKEKQQAANNRLLLDTI (C-terminal amide) [SEQ ID NO 37] | > 100 nM | 51% |
| ZGPPISIDLPIKLLRKMIEIEKQEKEKQQAANNRLLLDTI (C-terminal amide) [SEQ ID NO 34] | > 100 nM | 45% |
| ZGPPISIDLSLELLRKMIEIEKQEKEKQQAANNALLLATI (C-terminal amide) [SEQ ID NO 30] | 18.7 nM | 85.5% |
| ZGPPISIDLPTLLLRKMIEIEKQEKEKQQAANNRLLLDTI (C-terminal amide) [SEQ ID NO 51] | 20.6 nM | 100% |
| ZGPPISIDLPIVLLRKMIEIEKQEKEKQQAANNRLLLDTI (C-terminal amide) [SEQ ID NO 31] | 30.8 nM | 100% |
| ZGPPISIDLPQYLLRKMIEIEKQEKEKQQAANNRLLLDTI (C-terminal amide) [SEQ ID NO 27] | 10.7 nM | 96% |
| ZGPPISIDLPTSLLRKMIEIEKQEKEKQQAANNRLLLDTI (C-terminal amide) [SEQ ID NO 43] | > 100 nM | 67% |

| Binder | CRF2R EC50 | CRF2R Emax |
| --- | --- | --- |
| ZGPPISIDLPVYLLRKMIEIEKQEKEKQQAANNRLLLDTI (C-terminal amide) [SEQ ID NO 39] | 58.2 nM | 94% |
| ZGPPISIDLPTWLLRKMIEIEKQEKEKQQAANNRLLLDTI (C-terminal amide) [SEQ ID NO 41] | 18.3 nM | 100% |
| ZGPPISIDLPTILLRKMIEIEKQEKEKQQAANNRLLLDTI (C-terminal amide) [SEQ ID NO 50] | 19 nM | 94% |
| ZGPPISIDLPIPLLRKMIEIEKQEKEKQQAANNRLLLDTI (C-terminal amide) [SEQ ID NO 26] | 91.8 nM | 86% |
| ZGPPISIDLPQVLLRKMIEIEKQEKEKQQAANNRLLLDTI (C-terminal amide) [SEQ ID NO 197] | 48.1 nM | 94% |
| ZGPPISIDLPTTLLRKMIEIEKQEKEKQQAANNRLLLDTI (C-terminal amide) [SEQ ID NO 42] | > 100 nM | 88% |
| ZGPPISIDLPILLLRKMIEIEKQEKEKQQAANNRLLLDTI (C-terminal amide) [SEQ ID NO 35] | 15.6 nM | 88% |
| ZGPPISIDLPQQLLRKMIEIEKQEKEKQQAANNRLLLDTI (C-terminal amide) [SEQ ID NO 198] | 29.9 nM | 100% |
| ZGPPISIDLPAYLLRKMIEIEKQEKEKQQAANNRLLLDTI (C-terminal amide) [SEQ ID NO 32] | 20.2 nM | 98% |
| ZGPPISIDLPIALLRKMIEIEKQEKEKQQAANNRLLLDTI (C-terminal amide) [SEQ ID NO 47] | > 100 nM | 66% |
| ZGPPISIDLPIFLLRKMIEIEKQEKEKQQAANNRLLLDTI (C-terminal amide) [SEQ ID NO 29] | 16 nM | 100% |
| ZGPPISIDLPIDLLRKMIEIEKQEKEKQQAANNRLLLDTI (C-terminal amide) [SEQ ID NO 28] | 100 nM | 15% |
| ZGPPISIDLPTFLLRKMIEIEKQEKEKQQAANNRLLLDTI (C-terminal amide) [SEQ ID NO 44] | 19.1 nM | 87% |
| Ac-IVLSLDVPIGLLQILLEQEKARAAREQATTNARILARV-NH2 (not fully specified) [SEQ ID NO 107] | 12.1 nM |  |
| IVLSLDVPIGLLQILLEQEKARAAREQATTNARILARV-NH2 [SEQ ID NO 121] | 5.67 nM |  |
| SQEPPISLDLPLELLREVLEMTKADQLAQQAHSNRKLLDIA-NH2 [SEQ ID NO 89] | 100 nM | 12.7% |
| Ac-IVLSLDVPIGLLQILLEQEKARAAREQATTNARILARV-NH2 [SEQ ID NO 3] | 12.1 nM |  |
